In the Human Domainome abundance scans (Beltran et al. 2025):

B1: Homeobox protein cut-like 2, residues 895 to 963; numbered along this chain, O14529 (parent)
chain: EVDTLELTRQVKEKLAKNGICQRIFGEKVLGLSQGSVSDMLSRPKPWSKLTQKGREPFIRMQLWLSDQL

Variants of: B1
Assay: abundance fitness (aPCA) (normalised: wild type 0, dead -1); higher = more abundant; growth selection in yeast, the domain comes from the species named
Conditions: Homo sapiens

Abundance fitness, by site and new letter:
L41: I -0.315; A -0.223; F -0.088; S -0.234; M -0.214; Q -0.303; H -0.37; K -0.193; W -0.25; V -0.518; T -0.505; Y -0.418; N -0.481; D -0.353; E -0.41; G -0.107; C -0.452; R -0.226; P -0.257
S38: R 0.024; G -0.097; A 0.015; K 0.06; Q 0.03; N 0.012; D 0.007; P -0.209; H 0.005; Y -0.008; E 0.106; F -0.221; T 0.006
S33: V -0.061; Y -0.12
M40: R -0.145; N -0.473; V -0.046; K -0.02; F -0.189; W 0.048; S -0.201; C -0.045; P -0.251; I 0.007; Q -0.29; E -0.475; T -0.224; H -0.287; Y -0.236; A -0.169; D -0.059; L 0.136; G -0.298
V37: N -0.435; K -0.232; P -0.311; G -0.206; M -0.227; E -0.436; I -0.156; R -0.223; S -0.232; L 0.016; F 0.01; Y -0.257; H -0.378; C -0.031; W -0.061; A -0.139; T 0; D -0.397
G35: D -0.125; C -0.211; Y -0.125; L -0.03; T 0.039; R 0.037; A -0.006; N 0.044; W -0.106; V -0.058; P -0.077; K 0.124; H -0.043; M -0.098; I -0.215; Q 0.088; F -0.079; S 0.027; E 0.135
S36: Q 0.15; L 0.021; D 0.134; R -0.097; W -0.057; F -0.093; H -0.062; M -0.024; I 0.027; Y -0.062; E 0.152; P -0.08; A 0.073; V 0.064; N -0.045; T 0.002; G -0.34
R43: E -0.124; D 0.013; C -0.14; G -0.233; F -0.101; A -0.034; H 0.004; I -0.329
D39: W -0.328; H -0.279; C -0.15; Y -0.324; K -0.441; I -0.26; S -0.073; E 0.029; V -0.389; R -0.456; G 0.026; A -0.063; T -0.17; M -0.178; Q 0.005; N -0.188; P -0.184
Q34: E -0.254; Y -0.05; W 0.088; I 0.005; K 0.069; C -0.262; D -0.078; R 0.282; P 0.053; A 0.088; V 0.073; H 0.027; N 0.046; S -0.028; L -0.003; M -0.06; G 0.434; F 0.003
S42: A -0.014; K 0.009; M 0.012; D 0.039; P -0.159; F -0.167; L -0.086; V -0.146; R -0.054; H -0.007; C -0.004; T -0.169; Q -0.092; Y -0.075; E 0.059; N -0.095; G -0.272
